Measurements: US20140087995A1 (published 2014)
Numbered stars: 1 amine (or outer) side, 2 acyl side, 3 side chain; on linkers, the order of the positions; unused ones are H or OH. Bridge positions count the residues as written; N and C are the ends. Side chains are listed from the residue outwards. Ends that are not written are not given here. * marks the point of attachment. C20 diacid = O=C(O)CCCCCCCCCCCCCCCCCCC(=O)*; γGlu = O=C(O)[C@H](CCC(=O)[*:2])N[*:1]; AEEA = NCCOCCOCC(=O)O

T1: human amylin receptor (amylin 3(a) receptor: human calcitonin receptor with RAMP-3) (human, UniProt P30988 25-474; O60896 24-148)
T1 construct: whole, on cells; also called hAmylin-R; hAmylinR
T1 sequence (looked up) 1: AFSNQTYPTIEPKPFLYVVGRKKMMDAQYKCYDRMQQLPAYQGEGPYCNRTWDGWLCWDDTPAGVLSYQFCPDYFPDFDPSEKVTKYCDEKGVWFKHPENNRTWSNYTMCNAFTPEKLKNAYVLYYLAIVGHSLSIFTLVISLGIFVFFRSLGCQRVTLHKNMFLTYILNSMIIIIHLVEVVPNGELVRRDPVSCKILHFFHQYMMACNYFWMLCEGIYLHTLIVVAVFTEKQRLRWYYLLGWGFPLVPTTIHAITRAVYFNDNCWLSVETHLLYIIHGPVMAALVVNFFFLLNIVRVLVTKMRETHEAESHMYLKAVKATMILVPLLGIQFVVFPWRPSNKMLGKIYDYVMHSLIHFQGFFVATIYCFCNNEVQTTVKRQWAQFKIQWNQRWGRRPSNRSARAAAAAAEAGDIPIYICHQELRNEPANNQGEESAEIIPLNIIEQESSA
T1 sequence (looked up) 2: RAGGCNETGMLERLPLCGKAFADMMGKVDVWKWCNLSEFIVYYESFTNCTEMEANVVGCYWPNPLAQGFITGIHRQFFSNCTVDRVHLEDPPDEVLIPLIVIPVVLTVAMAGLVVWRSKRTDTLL

B1: N^ε1-[2-[2-[2-(19-carboxynonadecanoylamino)ethoxy]ethoxy]acetyl]-[His14,Arg17,Pro21,Pro27]-h-amylin (peptide)
peptide: K([AEEA-C20 diacid])CNTATCATQRLAHFLRHSSPNFGAIPSSTNVGSNTY-NH2
modifications: disulfide 2-7; N-terminus assumed
SMILES: CC[C@H](C)[C@H](NC(=O)[C@H](C)NC(=O)CNC(=O)[C@H](Cc1ccccc1)NC(=O)[C@H](CC(N)=O)NC(=O)[C@@H]1CCCN1C(=O)[C@H](CO)NC(=O)[C@H](CO)NC(=O)[C@H](Cc1c[nH]cn1)NC(=O)[C@H](CCCNC(=N)N)NC(=O)[C@H](CC(C)C)NC(=O)[C@H](Cc1ccccc1)NC(=O)[C@H](Cc1c[nH]cn1)NC(=O)[C@H](C)NC(=O)[C@H](CC(C)C)NC(=O)[C@H](CCCNC(=N)N)NC(=O)[C@H](CCC(N)=O)NC(=O)[C@@H](NC(=O)[C@H](C)NC(=O)[C@@H]1CSSC[C@H](NC(=O)[C@@H](N)CCCCNC(=O)COCCOCCNC(=O)CCCCCCCCCCCCCCCCCCC(=O)O)C(=O)N[C@@H](CC(N)=O)C(=O)N[C@@H]([C@@H](C)O)C(=O)N[C@@H](C)C(=O)N[C@@H]([C@@H](C)O)C(=O)N1)[C@@H](C)O)C(=O)N1CCC[C@H]1C(=O)N[C@@H](CO)C(=O)N[C@@H](CO)C(=O)N[C@H](C(=O)N[C@@H](CC(N)=O)C(=O)N[C@H](C(=O)NCC(=O)N[C@@H](CO)C(=O)N[C@@H](CC(N)=O)C(=O)N[C@H](C(=O)N[C@@H](Cc1ccc(O)cc1)C(N)=O)[C@@H](C)O)C(C)C)[C@@H](C)O
notes: also called 90; compound 90
B2: N^ε1-[2-[2-[2-[[2-[2-[2-[[(4S)-4-carboxy-4-(19-carboxynonadecanoylamino)butanoyl]amino]ethoxy]ethoxy]acetyl]amino]ethoxy]ethoxy]acetyl]-[Arg17,Pro21,Pro27,Pro31 … (peptide)
peptide: K([AEEA-AEEA-γGlu-C20 diacid])CNTATCATQRLANFLRHSSPNFGAIPSSTPVGSNTY-NH2
modifications: disulfide 2-7; N-terminus assumed
SMILES: CC[C@H](C)[C@H](NC(=O)[C@H](C)NC(=O)CNC(=O)[C@H](Cc1ccccc1)NC(=O)[C@H](CC(N)=O)NC(=O)[C@@H]1CCCN1C(=O)[C@H](CO)NC(=O)[C@H](CO)NC(=O)[C@H](Cc1c[nH]cn1)NC(=O)[C@H](CCCNC(=N)N)NC(=O)[C@H](CC(C)C)NC(=O)[C@H](Cc1ccccc1)NC(=O)[C@H](CC(N)=O)NC(=O)[C@H](C)NC(=O)[C@H](CC(C)C)NC(=O)[C@H](CCCNC(=N)N)NC(=O)[C@H](CCC(N)=O)NC(=O)[C@@H](NC(=O)[C@H](C)NC(=O)[C@@H]1CSSC[C@H](NC(=O)[C@@H](N)CCCCNC(=O)COCCOCCNC(=O)COCCOCCNC(=O)CC[C@H](NC(=O)CCCCCCCCCCCCCCCCCCC(=O)O)C(=O)O)C(=O)N[C@@H](CC(N)=O)C(=O)N[C@@H]([C@@H](C)O)C(=O)N[C@@H](C)C(=O)N[C@@H]([C@@H](C)O)C(=O)N1)[C@@H](C)O)C(=O)N1CCC[C@H]1C(=O)N[C@@H](CO)C(=O)N[C@@H](CO)C(=O)N[C@H](C(=O)N1CCC[C@H]1C(=O)N[C@H](C(=O)NCC(=O)N[C@@H](CO)C(=O)N[C@@H](CC(N)=O)C(=O)N[C@H](C(=O)N[C@@H](Cc1ccc(O)cc1)C(N)=O)[C@@H](C)O)C(C)C)[C@@H](C)O
notes: also called 96; compound 96
B3: N^ε1-[2-[2-[2-[[2-[2-[2-[[(4S)-4-carboxy-4-(19-carboxynonadecanoylamino)butanoyl]amino]ethoxy]ethoxy]acetyl]amino]ethoxy]ethoxy]acetyl]-[Arg17,Pro21,Pro27,His34 … (peptide)
peptide: K([AEEA-AEEA-γGlu-C20 diacid])CNTATCATQRLANFLRHSSPNFGAIPSSTNVGHNTY-NH2
modifications: disulfide 2-7; N-terminus assumed
SMILES: CC[C@H](C)[C@H](NC(=O)[C@H](C)NC(=O)CNC(=O)[C@H](Cc1ccccc1)NC(=O)[C@H](CC(N)=O)NC(=O)[C@@H]1CCCN1C(=O)[C@H](CO)NC(=O)[C@H](CO)NC(=O)[C@H](Cc1c[nH]cn1)NC(=O)[C@H](CCCNC(=N)N)NC(=O)[C@H](CC(C)C)NC(=O)[C@H](Cc1ccccc1)NC(=O)[C@H](CC(N)=O)NC(=O)[C@H](C)NC(=O)[C@H](CC(C)C)NC(=O)[C@H](CCCNC(=N)N)NC(=O)[C@H](CCC(N)=O)NC(=O)[C@@H](NC(=O)[C@H](C)NC(=O)[C@@H]1CSSC[C@H](NC(=O)[C@@H](N)CCCCNC(=O)COCCOCCNC(=O)COCCOCCNC(=O)CC[C@H](NC(=O)CCCCCCCCCCCCCCCCCCC(=O)O)C(=O)O)C(=O)N[C@@H](CC(N)=O)C(=O)N[C@@H]([C@@H](C)O)C(=O)N[C@@H](C)C(=O)N[C@@H]([C@@H](C)O)C(=O)N1)[C@@H](C)O)C(=O)N1CCC[C@H]1C(=O)N[C@@H](CO)C(=O)N[C@@H](CO)C(=O)N[C@H](C(=O)N[C@@H](CC(N)=O)C(=O)N[C@H](C(=O)NCC(=O)N[C@@H](Cc1c[nH]cn1)C(=O)N[C@@H](CC(N)=O)C(=O)N[C@H](C(=O)N[C@@H](Cc1ccc(O)cc1)C(N)=O)[C@@H](C)O)C(C)C)[C@@H](C)O
notes: also called 97; compound 97
B4: N^ε1-[2-[2-[2-[[2-[2-[2-[[(4S)-4-carboxy-4-(19-carboxynonadecanoylamino)butanoyl]amino]ethoxy]ethoxy]acetyl]amino]ethoxy]ethoxy]acetyl]-[Arg17,Pro21,Pro27,Pro34 … (peptide)
peptide: K([AEEA-AEEA-γGlu-C20 diacid])CNTATCATQRLANFLRHSSPNFGAIPSSTNVGPNTY-NH2
modifications: disulfide 2-7; N-terminus assumed
SMILES: CC[C@H](C)[C@H](NC(=O)[C@H](C)NC(=O)CNC(=O)[C@H](Cc1ccccc1)NC(=O)[C@H](CC(N)=O)NC(=O)[C@@H]1CCCN1C(=O)[C@H](CO)NC(=O)[C@H](CO)NC(=O)[C@H](Cc1c[nH]cn1)NC(=O)[C@H](CCCNC(=N)N)NC(=O)[C@H](CC(C)C)NC(=O)[C@H](Cc1ccccc1)NC(=O)[C@H](CC(N)=O)NC(=O)[C@H](C)NC(=O)[C@H](CC(C)C)NC(=O)[C@H](CCCNC(=N)N)NC(=O)[C@H](CCC(N)=O)NC(=O)[C@@H](NC(=O)[C@H](C)NC(=O)[C@@H]1CSSC[C@H](NC(=O)[C@@H](N)CCCCNC(=O)COCCOCCNC(=O)COCCOCCNC(=O)CC[C@H](NC(=O)CCCCCCCCCCCCCCCCCCC(=O)O)C(=O)O)C(=O)N[C@@H](CC(N)=O)C(=O)N[C@@H]([C@@H](C)O)C(=O)N[C@@H](C)C(=O)N[C@@H]([C@@H](C)O)C(=O)N1)[C@@H](C)O)C(=O)N1CCC[C@H]1C(=O)N[C@@H](CO)C(=O)N[C@@H](CO)C(=O)N[C@H](C(=O)N[C@@H](CC(N)=O)C(=O)N[C@H](C(=O)NCC(=O)N1CCC[C@H]1C(=O)N[C@@H](CC(N)=O)C(=O)N[C@H](C(=O)N[C@@H](Cc1ccc(O)cc1)C(N)=O)[C@@H](C)O)C(C)C)[C@@H](C)O
notes: also called 98; compound 98
B5: N^ε1-[2-[2-[2-[[2-[2-[2-[[(4S)-4-carboxy-4-(19-carboxynonadecanoylamino)butanoyl]amino]ethoxy]ethoxy]acetyl]amino]ethoxy]ethoxy]acetyl]-[Arg17,Pro21,Pro27,Glu35 … (peptide)
peptide: K([AEEA-AEEA-γGlu-C20 diacid])CNTATCATQRLANFLRHSSPNFGAIPSSTNVGSETY-NH2
modifications: disulfide 2-7; N-terminus assumed
SMILES: CC[C@H](C)[C@H](NC(=O)[C@H](C)NC(=O)CNC(=O)[C@H](Cc1ccccc1)NC(=O)[C@H](CC(N)=O)NC(=O)[C@@H]1CCCN1C(=O)[C@H](CO)NC(=O)[C@H](CO)NC(=O)[C@H](Cc1c[nH]cn1)NC(=O)[C@H](CCCNC(=N)N)NC(=O)[C@H](CC(C)C)NC(=O)[C@H](Cc1ccccc1)NC(=O)[C@H](CC(N)=O)NC(=O)[C@H](C)NC(=O)[C@H](CC(C)C)NC(=O)[C@H](CCCNC(=N)N)NC(=O)[C@H](CCC(N)=O)NC(=O)[C@@H](NC(=O)[C@H](C)NC(=O)[C@@H]1CSSC[C@H](NC(=O)[C@@H](N)CCCCNC(=O)COCCOCCNC(=O)COCCOCCNC(=O)CC[C@H](NC(=O)CCCCCCCCCCCCCCCCCCC(=O)O)C(=O)O)C(=O)N[C@@H](CC(N)=O)C(=O)N[C@@H]([C@@H](C)O)C(=O)N[C@@H](C)C(=O)N[C@@H]([C@@H](C)O)C(=O)N1)[C@@H](C)O)C(=O)N1CCC[C@H]1C(=O)N[C@@H](CO)C(=O)N[C@@H](CO)C(=O)N[C@H](C(=O)N[C@@H](CC(N)=O)C(=O)N[C@H](C(=O)NCC(=O)N[C@@H](CO)C(=O)N[C@@H](CCC(=O)O)C(=O)N[C@H](C(=O)N[C@@H](Cc1ccc(O)cc1)C(N)=O)[C@@H](C)O)C(C)C)[C@@H](C)O
notes: also called 25; compound 25
B6: N^ε1-[2-[2-[2-[[2-[2-[2-[[(4S)-4-carboxy-4-(19-carboxynonadecanoylamino)butanoyl]amino]ethoxy]ethoxy]acetyl]amino]ethoxy]ethoxy]acetyl]-[Arg17,Pro21,Pro27,Arg34 … (peptide)
peptide: K([AEEA-AEEA-γGlu-C20 diacid])CNTATCATQRLANFLRHSSPNFGAIPSSTNVGRNTY-NH2
modifications: disulfide 2-7; N-terminus assumed
SMILES: CC[C@H](C)[C@H](NC(=O)[C@H](C)NC(=O)CNC(=O)[C@H](Cc1ccccc1)NC(=O)[C@H](CC(N)=O)NC(=O)[C@@H]1CCCN1C(=O)[C@H](CO)NC(=O)[C@H](CO)NC(=O)[C@H](Cc1c[nH]cn1)NC(=O)[C@H](CCCNC(=N)N)NC(=O)[C@H](CC(C)C)NC(=O)[C@H](Cc1ccccc1)NC(=O)[C@H](CC(N)=O)NC(=O)[C@H](C)NC(=O)[C@H](CC(C)C)NC(=O)[C@H](CCCNC(=N)N)NC(=O)[C@H](CCC(N)=O)NC(=O)[C@@H](NC(=O)[C@H](C)NC(=O)[C@@H]1CSSC[C@H](NC(=O)[C@@H](N)CCCCNC(=O)COCCOCCNC(=O)COCCOCCNC(=O)CC[C@H](NC(=O)CCCCCCCCCCCCCCCCCCC(=O)O)C(=O)O)C(=O)N[C@@H](CC(N)=O)C(=O)N[C@@H]([C@@H](C)O)C(=O)N[C@@H](C)C(=O)N[C@@H]([C@@H](C)O)C(=O)N1)[C@@H](C)O)C(=O)N1CCC[C@H]1C(=O)N[C@@H](CO)C(=O)N[C@@H](CO)C(=O)N[C@H](C(=O)N[C@@H](CC(N)=O)C(=O)N[C@H](C(=O)NCC(=O)N[C@@H](CCCNC(=N)N)C(=O)N[C@@H](CC(N)=O)C(=O)N[C@H](C(=O)N[C@@H](Cc1ccc(O)cc1)C(N)=O)[C@@H](C)O)C(C)C)[C@@H](C)O
notes: also called 95; compound 95

What follows are binders tested against T1, human amylin receptor (amylin 3(a) …) (assay: SPA displacement of 125I-rat amylin, hAmylin 3(a) receptor membranes).
Summary of the method: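 One-site competition analysis of SPA counts yielded IC₅₀ as a measure of affinity. Membranes were at 35 ng/μL final; incubation was 120 min at 25° C, pH 7.4.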

IC50 | Binder
0.061 nM | B1
0.166 nM | B2
0.568 nM | B3
0.091 nM | B4
0.768 nM | B5
0.967 nM | B6
